The EC50 is the concentration needed to bring the measured effect to its halfway point. Low readings indicate a more potent agent, high ones a less potent agent.

This passage reports EC50 results from US20090252729A1.

Assay [1] deals with cynomolgus FcγR III (CD16a) (cynomolgus) (UniProt Q8SPW2). In words: Alphascreen assay, cynomolgus FcγR CD16a.
Assay [2] deals with human FcRIII-GST (CD16a, V158) (human) (UniProt P08637). In words: Alphascreen assay, human FcγR CD16a. On the technique in general: Bead proximity is the source of the signal in Alpha formats.
human FcRIII-GST (CD16a, V158) (human), sequence (P08637 17-208 F176V limits assumed): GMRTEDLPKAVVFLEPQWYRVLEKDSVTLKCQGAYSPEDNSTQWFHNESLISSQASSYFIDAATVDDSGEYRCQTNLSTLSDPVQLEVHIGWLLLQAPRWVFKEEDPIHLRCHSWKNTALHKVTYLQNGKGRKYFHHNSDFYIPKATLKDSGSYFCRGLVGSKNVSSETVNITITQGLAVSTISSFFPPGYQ
For assay [3], the target named is cynomolgus FcγR IIa (CD32a) (cynomolgus). In words: Alphascreen assay, cynomolgus FcγR CD32a (R).

cynomolgus FcγR III (CD16a) (cynomolgus), sequence (Q8SPW2 17-208 limits assumed): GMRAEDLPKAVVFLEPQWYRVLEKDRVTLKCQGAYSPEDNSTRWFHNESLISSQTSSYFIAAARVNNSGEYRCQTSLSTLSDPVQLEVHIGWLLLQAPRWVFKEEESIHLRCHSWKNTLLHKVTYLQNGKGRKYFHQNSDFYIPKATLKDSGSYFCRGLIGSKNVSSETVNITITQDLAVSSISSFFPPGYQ

For the substance Agly 5c8 IgG1 (antibody), the EC50 in assay [1] came out at 2320 nM; in assay [2] it was 1840 nM; in assay [3], 1170 nM.
